Biological target: flag-tagged ErbB2 (Xenopus laevis, wild type) (Xenopus laevis)

- phospho-Akt (S473) by western blot, normalised to GFP-myc, in ErbB2-transfected, serum-starved Hek293T cells treated with 10 ng/mL bacEC for 1 to 60 minutes: 20%
Substance: recombinant EC1-3 (bacEC) (domain or fragment)
